# In US20260256915A1 (published 2026):
# T1: PRAME peptide on HLA-A*02:01 (human)
# T1 peptide: SLLQHLIGL
# Biological target: T1, PRAME peptide on HLA-A*02:01
# Experiment: multimer staining
row,Binder,binding result
1,"nwTCR-2006 (TCR, V domains shown) Valpha: AQSVTQLDSHVSVSEGTPVLLRCNYSSSYSPSLFWYVQHPNKGLQLLLKYTSAATLVKGINGFEAEFKKSETSFHLTKPSAHMSDAAEYFCVVSITGFQKLVFGTGTRLLVSP Vbeta: GAVVSQHPSRVICKSGTSVKIECRSLDFQATTMFWYRQFPKQSLMLMATSNEGSKATYEQGVEKDKFLINHASLTLSTLTVTSAHPEDSSFYICSATEDNEKLFFGSGTQLSVL",recognises
2,"nwTCR-1953 (TCR, V domains shown) Valpha: DAKTTQPNSMESNEEEPVHLPCNHSTISGTDYIHWYRQLPSQGPEYVIHGLTSNVNNRMASLAIAEDRKSSTLILHRATLRDAAVYYCILRAGGSGDKLTFGTGTRLAVRP Vbeta: DTEVTQTPKHLVMGMTNKKSLKCEQHMGHRAMYWYKQKAKKPPELMFVYSYEKLSINESVPSRFSPECPNSSLLNLHLHALQPEDSALYLCASSQDPFWGAGELFFGEGSRLTVL",recognises
3,"nwTCR-2720 (TCR, V domains shown) Valpha: SQQGEEDPQALSIQEGENATMNCSYKTSINNLQWYRQNSGRGLVHLILIRSNEREKHSGRLRVTLDTSKKSSSLLITASRAADTASYFCATDLSGAGSYQLTFGKGTKLSVIP Vbeta: EAQVTQNPRYLITVTGKKLTVTCSQNMNHEYMSWYRQDPGLGLRQIYYSMNVEVTDKGDVPEGYKVSRKEKRNFPLILESPSPNQTSLYFCASSLGTGFGELFFGEGSRLTVL",recognises
4,"nwTCR-2159 (TCR, V domains shown) Valpha: QQPVQSPQAVILREGEDAVINCSSSKALYSVHWYRQKHGEAPVFLMILLKGGEQKGHDKISASFNEKKQQSSLYLTASQLSYSGTYFCGTESGRGSTLGRLYFGRGTQLTVWP Vbeta: DSGVTQTPKHLITATGQRVTLRCSPRSGDLSVYWYQQSLDQGLQFLIQYYNGEERAKGNILERFSAQQFPDLHSELNLSSLELGDSALYFCASSPWTSGSYEQYFGPGTRLTVT",recognises
5,"nwTCR-2718 (TCR, V domains shown) Valpha: GQQLNQSPQSMFIQEGEDVSMNCTSSSIFNTWLWYKQDPGEGPVLLIALYKAGELTSNGRLTAQFGITRKDSFLNISASIPSDVGIYFCAGFSQGGSEKLVFGKGTKLTVNP Vbeta: DSGVTQTPKHLITATGQRVTLRCSPRSGDLSVYWYQQSLDQGLQFLIQYYNGEERAKGNILERFSAQQFPDLHSELNLSSLELGDSALYFCASSPWTAGGNTIYFGEGSWLTVV",recognises
6,"nwTCR-2286 (TCR, V domains shown) Valpha: GQQLNQSPQSMFIQEGEDVSMNCTSSSIFNTWLWYKQDPGEGPVLLIALYKAGELTSNGRLTAQFGITRKDSFLNISASIPSDVGIYFCAGPEDDKIIFGKGTRLHILP Vbeta: DSGVTQTPKHLITATGQRVTLRCSPRSGDLSVYWYQQSLDQGLQFLIQYYNGEERAKGNILERFSAQQFPDLHSELNLSSLELGDSALYFCASSPWLQGGNEQFFGPGTRLTVL",recognises
7,"nwTCR-2418 (TCR, V domains shown) Valpha: DQQVKQNSPSLSVQEGRISILNCDYTNSMFDYFLWYKKYPAEGPTFLISISSIKDKNEDGRFTVFLNKSAKHLSLHIVPSQPGDSAVYFCAASGVRGQNFVFGPGTRLSVLP Vbeta: DSGVTQTPKHLITATGQRVTLRCSPRSGDLSVYWYQQSLDQGLQFLIQYYNGEERAKGNILERFSAQQFPDLHSELNLSSLELGDSALYFCASSPWLAGGREQYFGPGTRLTVT",recognises
8,"nwTCR-2228 (TCR, V domains shown) Valpha: QKEVEQNSGPLSVPEGAIASLNCTYSDRGSQSFFWYRQYSGKSPELIMFIYSNGDKEDGRFTAQLNKASQYVSLLIRDSQPSDSATYLCAGHTGNQFYFGTGTSLTVIP Vbeta: EPEVTQTPSHQVTQMGQEVILRCVPISNHLYFYWYRQILGQKVEFLVSFYNNEISEKSEIFDDQFSVERPDGSNFTLKIRSTKLEDSAMYFCASREDGYEQYFGPGTRLTVT",recognises
9,"nwTCR-2555 (TCR, V domains shown) Valpha: AQSVSQHNHHVILSEAASLELGCNYSYGGTVNLFWYVQYPGQHLQLLLKYFSGDPLVKGIKGFEAEFIKSKFSFNLRKPSVQWSDTAEYFCAVKMDSSYKLIFGSGTRLLVRP Vbeta: DGGITQSPKYLFRKEGQNVTLSCEQNLNHDAMYWYRQDPGQGLRLIYYSQIVNDFQKGDIAEGYSVSREKKESFPLTVTSAQKNPTAFYLCASLGLNYNEQFFGPGTRLTVL",recognises
10,"nwTCR-2157 (TCR, V domains shown) Valpha: QKEVEQNSGPLSVPEGAIASLNCTYSDRGSQSFFWYRQYSGKSPELIMFIYSNGDKEDGRFTAQLNKASQYVSLLIRDSQPSDSATYLCAVPGGTSYGKLTFGQGTILTVHP Vbeta: DTAVSQTPKYLVTQMGNDKSIKCEQNLGHDTMYWYKQDSKKFLKIMFSYNNKELIINETVPNRFSPKSPDKAHLNLHINSLELGDSAVYFCASSQGISGNTIYFGEGSWLTVV",recognises
11,"nwTCR-2523 (TCR, V domains shown) Valpha: RKEVEQDPGPFNVPEGATVAFNCTYSNSASQSFFWYRQDCRKEPKLLMSVYSSGNEDGRFTAQLNRASQYISLLIRDSKLSDSATYLCVVNRGSQGNLIFGKGTKLSVKP Vbeta: DAGVTQSPTHLIKTRGQQVTLRCSPKSGHDTVSWYQQALGQGPQFIFQYYEEEERQRGNFPDRFSGHQFPNYSSELNVNALLLGDSALYLCASSLVDYEQYFGPGTRLTVT",recognises

# Now from value to binder:
row,binding result,Binder
1,recognises,"nwTCR-2081 (TCR, V domains shown) Valpha: GEDVEQSLFLSVREGDSSVINCTYTDSSSTYLYWYKQEPGAGLQLLTYIFSNMDMKQDQRLTVLLNKKDKHLSLRIADTQTGDSAIYFCAESVGYGGSQGNLIFGKGTKLSVKP Vbeta: KAGVTQTPRYLIKTRGQQVTLSCSPISGHRSVSWYQQTPGQGLQFLFEYFSETQRNKGNFPGRFSGRQFSNSRSEMNVSTLELGDSALYLCASSLEAGSFYEQYFGPGTRLTVT"
2,recognises,"nwTCR-1906 (TCR, V domains shown) Valpha: RKEVEQDPGPFNVPEGATVAFNCTYSNSASQSFFWYRQDCRKEPKLLMSVYSSGNEDGRFTAQLNRASQYISLLIRDSKLSDSATYLCVVTQAGTALIFGKGTTLSVSS Vbeta: not shown"
3,recognises,"nwTCR-1954 (TCR, V domains shown) Valpha: QKEVEQNSGPLSVPEGAIASLNCTYSDRGSQSFFWYRQYSGKSPELIMSIYSNGDKEDGRFTAQLNKASQYVSLLIRDSQPSDSATYLCAVLRSNDYKLSFGAGTTVTVRA Vbeta: EAQVTQNPRYLITVTGKKLTVTCSQNMNHEYMSWYRQDPGLGLRQIYYSMNVEVTDKGDVPEGYKVSRKEKRNFPLILESPSPNQTSLYFCASSPGTSGNEQFFGPGTRLTVL"
4,recognises,"nwTCR-2383 (TCR, V domains shown) Valpha: GIQVEQSPPDLILQEGANSTLRCNFSDSVNNLQWFHQNPWGQLINLFYIPSGTKQNGRLSATTVATERYSLLYISSSQTTDSGVYFCAVMPSGTYKYIFGTGTRLKVLA Vbeta: EAQVTQNPRYLITVTGKKLTVTCSQNMNHEYMSWYRQDPGLGLRQIYYSMNVEVTDKGDVPEGYKVSRKEKRNFPLILESPSPNQTSLYFCASSPSSGYNEQFFGPGTRLTVL"
5,recognises,"nwTCR-2169 (TCR, V domains shown) Valpha: SQQGEEDPQALSIQEGENATMNCSYKTSINNLQWYRQNSGRGLVHLILIRSNEREKHSGRLRVTLDTSKKSSSLLITASRAADTASYFCATLTLNDYKLSFGAGTTVTVRA Vbeta: EAQVTQNPRYLITVTGKKLTVTCSQNMNHEYMSWYRQDPGLGLRQIYYSMNVEVTDKGDVPEGYKVSRKEKRNFPLILESPSPNQTSLYFCATQWASGSTDTQYFGPGTRLTVL"
6,recognises,"nwTCR-2316 (TCR, V domains shown) Valpha: TQLLEQSPQFLSIQEGENLTVYCNSSSVFSSLQWYRQEPGEGPVLLVTVVTGGEVKKLKRLTFQFGDARKDSSLHITAAQPGDTGLYLCAGVDNYGQNFVFGPGTRLSVLP Vbeta: DAGVIQSPRHEVTEMGQEVTLRCKPISGHNSLFWYRQTMMRGLELLIYFNNNVPIDDSGMPEDRFSAKMPNASFSTLKIQPSEPRDSAVYFCASSIAALGFGELFFGEGSRLTVL"
7,recognises,"nwTCR-2583 (TCR, V domains shown) Valpha: GQSLEQPSEVTAVEGAIVQINCTYQTSGFYGLSWYQQHDGGAPTFLSYNALDGLEETGRFSSFLSRSDSYGYLLLQELQMKDSASYFCALGTEDKIIFGKGTRLHILP Vbeta: EAQVTQNPRYLITVTGKKLTVTCSQNMNHEYMSWYRQDPGLGLRQIYYSMNVEVTDKGDVPEGYKVSRKEKRNFPLILESPSPNQTSLYFCASRISLGANYGYTFGSGTRLTVV"
8,recognises,"nwTCR-2170 (TCR, V domains shown) Valpha: GQQLNQSPQSMFIQEGEDVSMNCTSSSIFNTWLWYKQDPGEGPVLLIALYKAGELTSNGRLTAQFGITRKDSFLNISASIPSDVGIYFCAGQASGTYKYIFGTGTRLKVLA Vbeta: EAQVTQNPRYLITVTGKKLTVTCSQNMNHEYMSWYRQDPGLGLRQIYYSMNVEVTDKGDVPEGYKVSRKEKRNFPLILESPSPNQTSLYFCASSSGTSDEQYFGPGTRLTVT"
9,recognises,"nwTCR-2285 (TCR, V domains shown) Valpha: KNEVEQSPQNLTAQEGEFITINCSYSVGISALHWLQQHPGGGIVSLFMLSSGKKKHGRLIATINIQEKHSSLHITASHPRDSAVYICALNSDSNYQLIWGAGTKLIIKP Vbeta: EAQVTQNPRYLITVTGKKLTVTCSQNMNHEYMSWYRQDPGLGLRQIYYSMNVEVTDKGDVPEGYKVSRKEKRNFPLILESPSPNQTSLYFCATSPGTLYEQYFGPGTRLTVT"
10,recognises,"nwTCR-2719 (TCR, V domains shown) Valpha: GIQVEQSPPDLILQEGANSTLRCNFSDSVNNLQWFHQNPWGQLINLFYIPSGTKQNGRLSATTVATERYSLLYISSSQTTDSGVYFCAVLAPGTYKYIFGTGTRLKVLA Vbeta: EAQVTQNPRYLITVTGKKLTVTCSQNMNHEYMSWYRQDPGLGLRQIYYSMNVEVTDKGDVPEGYKVSRKEKRNFPLILESPSPNQTSLYFCASSWGSGYEQYFGPGTRLTVT"
11,recognises,"nwTCR-2614 (TCR, V domains shown) Valpha: AQTVTQSQPEMSVQEAETVTLSCTYDTSENNYYLFWYKQPPSRQMILVIRQEAYKQQNATENRFSVNFQKAAKSFSLKISDSQLGDTAMYFCAFDNNARLMFGDGTQLVVKP Vbeta: GAVVSQHPSWVICKSGTSVKIECRSLDFQATTMFWYRQFPKQSLMLMATSNEGSKATYEQGVEKDKFLINHASLTLSTLTVTSAHPEDSSFYICSATRDSSYNEQFFGPGTRLTVL"
